± gives the uncertainty stated by the source.
B1: Retinoic acid receptor beta, residues 85 to 161; numbered along this chain, P10826 (parent)
chain: YKPCFVCQDKSSGYHYGVSACEGCKGFFRRSIQKNMIYTCHRDKNCVINKVTRNRCQYCRLQKCFEVGMSKESVRND

Variants of: B1
Experiment: abundance fitness (aPCA) (normalised: wild type 0, dead -1); higher = more abundant; growth selection in yeast, the domain comes from the species named
Details: Homo sapiens

Variant | abundance fitness
YKPCFVCQDKSHGYHYGVSACEGCKGFFRRSIQKNMIYTCHRDKNCVINKVTRNRCQYCRLQKCFEVGMSKESVRND [S12H] | -0.034 ± 0.17
YKPCFVCQDKSSGYHYGVSACEGCKGFFRRSIQKNMIYTCHRDKNCVIFKVTRNRCQYCRLQKCFEVGMSKESVRND [N49F] | -0.368 ± 0.13
YKPCFVCQDWSSGYHYGVSACEGCKGFFRRSIQKNMIYTCHRDKNCVINKVTRNRCQYCRLQKCFEVGMSKESVRND [K10W] | -0.042 ± 0.056
YKPCFVCQDCSSGYHYGVSACEGCKGFFRRSIQKNMIYTCHRDKNCVINKVTRNRCQYCRLQKCFEVGMSKESVRND [K10C] | 0.019 ± 0.086
YQPCFVCQDKSSGYHYGVSACEGCKGFFRRSIQKNMIYTCHRDKNCVINKVTRNRCQYCRLQKCFEVGMSKESVRND [K2Q] | 0.052 ± 0.073
YKPCFVCQDKSSGYHYGVSACEGCKGFFRRSIQKNMIYTCHRDKNCVINKVTRNRCQYCRLQKCFEVGMTKESVRND [S70T] | 0.067 ± 0.053
YKPCFVCQDKSSGYHYGVSACEGCKGFFRRSIQKNMIYTCHRDKNCVINKVTRNRCQYCRLQKCFEVGMVKESVRND [S70V] | 0.038 ± 0.044
YKPCFVCQDKSSGYHYGVSACEGCKGFFRRSIQKNMIYTCHRDKNCVINKVTRNRCQYCRLQKCFEVGMYKESVRND [S70Y] | -0.291 ± 0.098
YKPCFVCQDKSSGYHYGVSACEGCKGFFRRSIQKNMIYTCHRDKNCVINKVTRNRCQYCRLPKCFEVGMSKESVRND [Q62P] | -0.814 ± 0.33
YKPCFVCQDKSSGYHYGVKACEGCKGFFRRSIQKNMIYTCHRDKNCVINKVTRNRCQYCRLQKCFEVGMSKESVRND [S19K] | -0.21 ± 0.078
YKPCFVCQDKSSGYHYGVSACEPCKGFFRRSIQKNMIYTCHRDKNCVINKVTRNRCQYCRLQKCFEVGMSKESVRND [G23P] | 0.072 ± 0.061
YKPCFVCQDKSSGYHYGVSACEGCKGFFRRSIQKNMIYTCHRDKNCPINKVTRNRCQYCRLQKCFEVGMSKESVRND [V47P] | 0.043 ± 0.041
YKPCFVCQDKSSGYHYGVSACEGCKGFFRRSIQKNMIYTCHRDKNCRINKVTRNRCQYCRLQKCFEVGMSKESVRND [V47R] | -0.075 ± 0.037
YKPCFVCQDKSSGYHYGVSACEGCKGFFRRSIQKNMIYTCHEDKNCVINKVTRNRCQYCRLQKCFEVGMSKESVRND [R42E] | 0.07 ± 0.055
YKPCFVCQDKSSGYHYGVSACEGCKGFFRRSIFKNMIYTCHRDKNCVINKVTRNRCQYCRLQKCFEVGMSKESVRND [Q33F] | -0.148 ± 0.091
YKPCFVCQDKSSGYHYGVSACEGCKGFFRRSIQKNMIYTCHRDKNCVANKVTRNRCQYCRLQKCFEVGMSKESVRND [I48A] | -0.531 ± 0.068
YKPCFVCQDKSSGYHYGVSACEGCKGFFRRSIQKNMIYTCHRDKNCVTNKVTRNRCQYCRLQKCFEVGMSKESVRND [I48T] | -0.161 ± 0.055
YKPCFVCQDKSSGYHYGVSACEGCKGFFRRSIQKNMIYTCHRDKNCVHNKVTRNRCQYCRLQKCFEVGMSKESVRND [I48H] | -0.505 ± 0.47
YKPCFVCQDKDSGYHYGVSACEGCKGFFRRSIQKNMIYTCHRDKNCVINKVTRNRCQYCRLQKCFEVGMSKESVRND [S11D] | 0 ± 0.073
YKPCFVCQDKSSGYHYGVSACEGCKGYFRRSIQKNMIYTCHRDKNCVINKVTRNRCQYCRLQKCFEVGMSKESVRND [F27Y] | -0.57 ± 0.23
YKPCFVCQDKSSGYHYGVSACEGCKGFFRRSIQKNMIYTCHRDKNCVINKVHRNRCQYCRLQKCFEVGMSKESVRND [T52H] | -0.397 ± 0.16
YKPCFVCQDKSSGYHYGVSACEGCKGFFRRSIQKNMIYTCHRDKNCVINKVTRNECQYCRLQKCFEVGMSKESVRND [R55E] | 0.277 ± 0.043
YKPCFVCQDKSSGYHYGVSACEGCKGFFRRSIQKNMIYTCHRDKNCVINKVTRNGCQYCRLQKCFEVGMSKESVRND [R55G] | 0.262 ± 0.032
YKPCFVCQDKSSGYHYGVSACEGCKGFFRRSIQKNMIYTCHRDKNCVINKVTRNRCQYCRLQKCFEVGMSKESVRGD [N76G] | -0.048 ± 0.049

Variant | abundance fitness
YKPCTVCQDKSSGYHYGVSACEGCKGFFRRSIQKNMIYTCHRDKNCVINKVTRNRCQYCRLQKCFEVGMSKESVRND [F5T] | -0.048 ± 0.058
YKPCFMCQDKSSGYHYGVSACEGCKGFFRRSIQKNMIYTCHRDKNCVINKVTRNRCQYCRLQKCFEVGMSKESVRND [V6M] | -0.76 ± 0.15
YKPCFVCQDKSSGKHYGVSACEGCKGFFRRSIQKNMIYTCHRDKNCVINKVTRNRCQYCRLQKCFEVGMSKESVRND [Y14K] | 0.012 ± 0.09
YKPCFVCQDKSSGYHFGVSACEGCKGFFRRSIQKNMIYTCHRDKNCVINKVTRNRCQYCRLQKCFEVGMSKESVRND [Y16F] | 0.035 ± 0.061
YKPCFVCQDKSSGYHYGVSACEGCKGFFRRSIQKNMIYTCHRDKNCVINKVTRNRCQYCRLQKCFQVGMSKESVRND [E66Q] | -0.011 ± 0.057
YKPCFVCQDKSSGYHYGVSACEGCKGFFNRSIQKNMIYTCHRDKNCVINKVTRNRCQYCRLQKCFEVGMSKESVRND [R29N] | 0.145 ± 0.15
YKPCFVCQDKSSGYHYGVSACEGCKGFFHRSIQKNMIYTCHRDKNCVINKVTRNRCQYCRLQKCFEVGMSKESVRND [R29H] | 0.162 ± 0.2
YKPCFVCVDKSSGYHYGVSACEGCKGFFRRSIQKNMIYTCHRDKNCVINKVTRNRCQYCRLQKCFEVGMSKESVRND [Q8V] | -0.598 ± 0.073
YKPCFVCNDKSSGYHYGVSACEGCKGFFRRSIQKNMIYTCHRDKNCVINKVTRNRCQYCRLQKCFEVGMSKESVRND [Q8N] | -0.035 ± 0.079
YKPCFVCQDKSSGYHYGVSACEGCKGFFRRSIQKNMIYTCHRDKNCVINKVTRNRCQYCRLQKCFEVGMSKEWVRND [S73W] | -0.091 ± 0.046
YKPCFVCQDKSSGYHYGVSACEGCKGFFRRSIQKNMIYTCHRDKNCVINKVTRNRCQYCRLQKCFEVGMSKEEVRND [S73E] | 0.091 ± 0.046
YKPVFVCQDKSSGYHYGVSACEGCKGFFRRSIQKNMIYTCHRDKNCVINKVTRNRCQYCRLQKCFEVGMSKESVRND [C4V] | -0.807 ± 0.12
YKPCFVCQDKSSGYHYGVSACEGCKGFFRRSIQKNMIYTCHRDKNCVINKVTRNRCQYCRLQKCFEVGMSKESRRND [V74R] | -0.188 ± 0.043
YKPCFVCQDKSSGYHYGVSACEGCKGFFRRSIQKNQIYTCHRDKNCVINKVTRNRCQYCRLQKCFEVGMSKESVRND [M36Q] | 0.089 ± 0.059
CKPCFVCQDKSSGYHYGVSACEGCKGFFRRSIQKNMIYTCHRDKNCVINKVTRNRCQYCRLQKCFEVGMSKESVRND [Y1C] | -0.008 ± 0.085
YKPCFVCQDKSSGYHYGVSAFEGCKGFFRRSIQKNMIYTCHRDKNCVINKVTRNRCQYCRLQKCFEVGMSKESVRND [C21F] | -1.14 ± 0.48
YKPCFVCQDKSSGYHYGVSAMEGCKGFFRRSIQKNMIYTCHRDKNCVINKVTRNRCQYCRLQKCFEVGMSKESVRND [C21M] | -0.751 ± 0.17
YKPCFVCQDKSSGYHYGISACEGCKGFFRRSIQKNMIYTCHRDKNCVINKVTRNRCQYCRLQKCFEVGMSKESVRND [V18I] | 0.012 ± 0.097
YKPCFVCQDKSSGYHYGDSACEGCKGFFRRSIQKNMIYTCHRDKNCVINKVTRNRCQYCRLQKCFEVGMSKESVRND [V18D] | -0.637 ± 0.21
YKPCFVCQDKSSGYKYGVSACEGCKGFFRRSIQKNMIYTCHRDKNCVINKVTRNRCQYCRLQKCFEVGMSKESVRND [H15K] | -0.276 ± 0.095
YKPCFVCQDKSSGYHYGVSACEGCKGFFRRSIQKNMIYTEHRDKNCVINKVTRNRCQYCRLQKCFEVGMSKESVRND [C40E] | -0.831 ± 0.096
YKPCFVCQDKSSGYHYGVSACEGCKGFNRRSIQKNMIYTCHRDKNCVINKVTRNRCQYCRLQKCFEVGMSKESVRND [F28N] | -0.847 ± 0.33
YKPCFVCQDKSSGYHYGVSACIGCKGFFRRSIQKNMIYTCHRDKNCVINKVTRNRCQYCRLQKCFEVGMSKESVRND [E22I] | -0.267 ± 0.11
YKPCFVCQDKSSGYHYGVSACEGCKIFFRRSIQKNMIYTCHRDKNCVINKVTRNRCQYCRLQKCFEVGMSKESVRND [G26I] | -0.078 ± 0.11

Variant | abundance fitness
YKPCFVCQPKSSGYHYGVSACEGCKGFFRRSIQKNMIYTCHRDKNCVINKVTRNRCQYCRLQKCFEVGMSKESVRND [D9P] | -1 ± 0.43
YKPCFVCQHKSSGYHYGVSACEGCKGFFRRSIQKNMIYTCHRDKNCVINKVTRNRCQYCRLQKCFEVGMSKESVRND [D9H] | -0.543 ± 0.18
YKPCFVCQDKSSGYHYGVSACEGCKGFFRRSIQKNMIYTCHRDKNCVINKVTRNRCQRCRLQKCFEVGMSKESVRND [Y58R] | -0.325 ± 0.057
YKPCFVCQDKSSGYHYGVSACEGCKGFFRRSIQKNMIYTCHRDKNCVINKVTRNRCQMCRLQKCFEVGMSKESVRND [Y58M] | -0.237 ± 0.08
YKPCFVQQDKSSGYHYGVSACEGCKGFFRRSIQKNMIYTCHRDKNCVINKVTRNRCQYCRLQKCFEVGMSKESVRND [C7Q] | -1 ± 0.33
YKPCFVCQDKSSGYHYGVSACEGCKGFFRRSIQKNMIYTCMRDKNCVINKVTRNRCQYCRLQKCFEVGMSKESVRND [H41M] | 0.081 ± 0.047
YKPCFVCQDKSSGYHYGVSACEGCKGFFRRSIQKNMIYTCWRDKNCVINKVTRNRCQYCRLQKCFEVGMSKESVRND [H41W] | 0.016 ± 0.038
YKPCFVCQDKSSGYHYGVSACEGCKGFFRRSIQKNMIYTCARDKNCVINKVTRNRCQYCRLQKCFEVGMSKESVRND [H41A] | -0.006 ± 0.039
YKPCFVCQDKSSGYHYGVSACEGCKGFFRRSIQKNMINTCHRDKNCVINKVTRNRCQYCRLQKCFEVGMSKESVRND [Y38N] | -0.28 ± 0.18
YKPCFVCQDKSSGYHYGVSACEGCKGFFRRSIQKNMIYTCHRDKNCVINKVTRNRCQYYRLQKCFEVGMSKESVRND [C59Y] | -0.831 ± 0.33
YKPCFVCQDKSSGYHYGVSACEGCKGFFRRSIQKNMIYTCHRDKNCVINKVTRNRNQYCRLQKCFEVGMSKESVRND [C56N] | -0.953 ± 0.37
YKPCFVCQDKSSGYHYGVSACEGCKGFFRRSIQKNMIYTCHRDKNCVINKVTRNRAQYCRLQKCFEVGMSKESVRND [C56A] | -1.16 ± 0.22
YKPCFVCQDKSSGYHYGVSACEGCKGFFRRSIQKNMIYTCHRDKNCVINKVTRNRCQYCRLQKCFEVGMSKQSVRND [E72Q] | -0.134 ± 0.075
YKPCFVCQDKSSGYHYGVSACEGCKGFFRRSIQKNMIYTCHRDKNCVINKVTTNRCQYCRLQKCFEVGMSKESVRND [R53T] | -0.002 ± 0.06
YKPCFVCQDKSSGYHYGVSACEGCKGFFRRSIQKNMIYTCHRDKNCVINKVTRNRCQYCRLQKCFEVGMSFESVRND [K71F] | -0.189 ± 0.087
YKPCFVCQDKSSGYHYGVSACEGCKGFFRRSIQKNMIYTCHRDKNCVINKVTRNRCQYCRLQKCFEVGMSQESVRND [K71Q] | -0.007 ± 0.072
YKPCFVCQDKSSGYHYGVSACEGCKGFFRRSIQKFMIYTCHRDKNCVINKVTRNRCQYCRLQKCFEVGMSKESVRND [N35F] | -0.215 ± 0.11
YKPCFVCQDKSSGYHYGVSACEGCKGFFRRSIQKNMIYTCHRDKNCVINKVTRNRCQYCRLQKCFEVGISKESVRND [M69I] | -0.142 ± 0.38
YKPCFVCQDKSSGYHYGVSACEGCKGFFRRSIQKNMIYTCHRHKNCVINKVTRNRCQYCRLQKCFEVGMSKESVRND [D43H] | -0.32 ± 0.13
YKPCFVCQDKSSGYHYGVSACEGCKGFFRRSIQKNMIYTCHRFKNCVINKVTRNRCQYCRLQKCFEVGMSKESVRND [D43F] | -0.014 ± 0.071
YKPCFVCQDKSSGYHYGVSACEGCKGFFRRSIQKNMIYTCHRDKNCVINKVTRNRCQYCGLQKCFEVGMSKESVRND [R60G] | -0.491 ± 0.069
YKPCFVCQDKSSGYHYGVSACEGCKGFFRRSIQKNMIYTCHRDKNVVINKVTRNRCQYCRLQKCFEVGMSKESVRND [C46V] | -0.737 ± 0.12
YKPCFVCQDKSSGYHYGVSACEGCKGFFRRSIQKNMIYTCHRDKNQVINKVTRNRCQYCRLQKCFEVGMSKESVRND [C46Q] | -1.01 ± 0.23

Reference: the Human Domainome abundance scans (Beltran et al. 2025)
